Reference: PMC8277567, “Thermostable D-amino acid decarboxylases derived from Thermotoga maritima diaminopimelate decarboxylase” (Protein Engineering, Design and Selection, 2021)

Assays:
NC(CCCCC(=O)O)C(=O)O = assay: purified protein; conditions: similar conditions to wild-type assay; 2-APA 0-10 mM; racemic substrate
[1] = test system: N[C@H](CCC[C@H](N)C(=O)O)C(=O)O; assay: purified protein; conditions: 100 mM TEA-HCl pH 7.8, PLP, 10 mM MgCl2, 30 C, DAP 0-10 mM

| Substance | Km (NC(CCCCC(=O)O)C(=O)O) | kcat (NC(CCCCC(=O)O)C(=O)O) | Km [1] | kcat [1] |
| --- | --- | --- | --- | --- |
| TmDAPDC (diaminopimelate decarboxylase from T. maritima) (Thermotoga maritima MSB8; E315T) | 0.32 (0.03) mM | 0.2 s⁻¹ |  |  |
| TmDAPDC (diaminopimelate decarboxylase from T. maritima) (Thermotoga maritima MSB8) |  |  | 0.27 (0.06) mM | 0.075 s⁻¹ |
